Publication PMC4210639

Target: FLRT^LRR (SPR test of FLRT^LRR-FLRT^LRR binding)
Assay: SPR

Substance “FLRT^LRR (SPR test of FLRT^LRR-FLRT^LRR binding)” has a Kd greater than 100 µM.
